Measured values from patent US5795761A, “Mutants of 2,5-diketo-D-gluconic acid (2,5-DKG) reductase A” (Rutgers, The State University of New Jersey, priority 1996, dated 1998).
Residue numbers refer to the chain shown, from its start. Names and notes keep the numbering of the source.

B1: Corynebacterium sp. 2,5-DKG reductase A, wild type (Corynebacterium sp. ATCC 31090) (protein)
chain: MTVPSIVLNDGNSIPQLGYGVFKVPPADTQRAVEEALEVGYRHIDTAAIYGNEEGVGAAIAASGIARDDLFITTKLWNDRHDGDEPAAAIAESLAKLALDQVDLYLVHWPTPAADNYVHAWEKMIELRAAGLTRSIGVSNHLVPHLERIVAATGVVPAVNQIELHPAYQQREITDWAAAHDVKIESWGPLGQGKYDLFGAEPVTAAAAAHGKTPAQAVLRWHLQKGFVVFPKSVRRERLEENLDVFDFDLTDTEIAAIDAMDPGDGSGRVSAHPDEVD
notes: made in house; host or cells: Acetobacter cerinus (ATCC No. 39140)
B2: Corynebacterium sp. 2,5-DKG reductase A mutant A272G (Corynebacterium sp. ATCC 31090; A272G) (protein)
chain: B1 chain with A272G
notes: made in house
B3: Corynebacterium sp. 2,5-DKG reductase A mutant Q192R (Corynebacterium sp. ATCC 31090; Q192R) (protein)
chain: B1 chain with Q192R
notes: made in house; host or cells: Acetobacter cerinus
B4: Corynebacterium sp. 2,5-DKG reductase A mutant F22Y/A272G (Corynebacterium sp. ATCC 31090; A272G/F22Y) (protein)
chain: B1 chain with F22Y, A272G
notes: made in house

Tests used:
Type in all cases: biochemical, Corynebacterium sp. (ATCC 31090)
[1] = substrate: O=C(O)C(=O)[C@@H](O)[C@H](O)C(=O)CO; assay: Substrate kinetics of 2,5-DKG reduction (NADPH oxidation followed at 340 nm); settings: other: 50 mM tris pH 7.0, 0.2 mM NADPH, 2 to 14 mM substrate, 25° C.
Experimental: (§1) The preparations of wild-type and mutant Q192R 2,5-DKG reductase A enzymes were characterized kinetically as to their ability to reduce the substrate 2,5-DKG to 2-KLG. Assays were done in 1 ml total volume of 50 mM tris, pH 7.0, containing 0.2 mM NADPH, a constant amount of enzyme (15-20 μg) and amounts of substrate varying from 2 to 14 mM. The assays were done at 25° C., and the rate of substrate reduction was measured spectrophotometrically by measuring the loss of absorbance at 340 nm wavelength (which is indicative of the oxidation of the cofactor NADPH to NADP+).
The data were analyzed according to the well-known Michaelis equation to determine the kinetic parameters Vmax and Km using the Enzfit software package (Biosoft, Cambridge, UK) on a Epson desktop computer.

[2] = substrate: O=C(O)C(=O)[C@@H](O)[C@H](O)C(=O)CO; assay: Substrate kinetics of 2,5-DKG reduction, 200 μM NADPH, substrate 0 to 30 mM; settings: other: 200 μM NADPH, 0 to 30 mM 2,5-DKG; pH 7.0; 25.0 °C
Experimental: as §1
A crude kinetic characterization of 2,5-DKG Reductase A mutants D278A, V277A, E276A, D275A, P274A, H273A, A272G, S271A, V270A, R269A, S267A, and D265A was carried out. […] 2-5-DKG Reductase A mutant A272G was characterized in essentially the same manner as in Example 5 except that in order to determine kinetic parameters for the NADPH-dependent reduction of 2,5-DKG by 2,5-DKG reductases, a series of reactions were done with constant saturating concentration of NADPH (200 μM) and varying concentrations of substrate from 0 to 30 mM.

[3] = substrate: NC(=O)C1=CN([C@@H]2O[C@H](COP(=O)(O)OP(=O)(O)OC[C@H]3O[C@@H](n4cnc5c(N)ncnc54)[C@H](OP(=O)(O)O)[C@@H]3O)[C@@H](O)[C@H]2O)C=CC1; assay: Cofactor kinetics, constant 2,5-DKG and varying NADPH; settings: other: 50 mM bis-Tris pH 6.8, 10 mM 2,5-DKG, 2.5 to 200 μM NADPH
Experimental: The cofactor affinity of DKG reductase A F22Y, Q192R, A272G, and F22Y/A272G was determined by analysis of a series of reactions with constant substrate concentration and varying concentrations of NADPH.
Each series of reactions consisted of 50 mM bis-Tris pH 6.8, 10 mM 2,5-DKG, from 2.5 to 200 μM NADPH, and enzyme in a total volume of 1.0 ml.
Initial rate data for the reactions were fitted to the Michaelis-Menten equation by non-linear regression analysis as previously described to determine KM,NADPH.

Row | Protein | Km [1] [mM] | Vmax [1] | kcat/Km [1] [M⁻¹ s⁻¹] | Km [2] [mM] | kcat [2] [s⁻¹] | Km [3] [mM]
1 | B1 | 28 | 7.8 μmoles per minute per milligram of protein | 140 |  |  | 
2 | B2 |  |  |  | 42.61 ± 12.13 | 21.44 ± 4.10 | 0.00492
3 | B3 | 21 | 14.0 μmoles per minute per milligram of protein | 335 |  |  | 
4 | B4 |  |  |  |  |  | 0.00819
